Experimental data as given in US20230330033A1.

Target: CD40 (UniProt P25942)
Experiment: cell-based or functional assay

Substance: LOB7/6 (antibody)
- EC50 of CD40 activation, bioluminescent reporter CHO cells: -1.47 log(µM)
